Assay results reported in the supplement of paper PMC7877785.
± gives the uncertainty stated by the source.

Assay: self-splicing fitness, log relative to wild type (ln ratio); higher = more splicing; Tetrahymena group I intron in knt gene, E. coli kanamycin selection, DiMSum; sequences stand for … in CUCUCU…GGAGGGAAAAGUUAUCAGGCAUGCACCUGGUAGCUAGUCUUUAAACCAAUAGAUUGCAUCGGUUUAAAAGGCAAGACCGUCAAAUUGCGGGAAAGGGGUCAACAGCCGUUCAGUACCAAGUCUCAGGGGAAACUUUGAGAUGGCCUUGCAAAGGGUAUGGUAAUAAGCUGACGGACAUGGUCCUAACCACGCAGCCAAGUCCUAAGUCAACAGAUCUUCUGUUGAUAUGGAUGCAGUUCACAGACUAAAUGUCGGUCGGGGAAGAUGUAUUCUUCUCAUAAGAUAUAGUCGGACCUCUCCUUAAUGGGAGCUAGCGGAUGAAGUGAUGCAACACUGGAGCCGCUGGGAACUAAUUUGUAUGCGAAAGUAUAUUGAUUAGUUUUGGAGUACUCGUGGUCG
In short: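 The eight P1ex-region nucleotides of an intron in the knt kanamycin-resistance gene on pET-22b(+) were all randomised and the library put into E. coli BL21(DE3). Six replicate transformations were grown overnight at 37°C or 30°C on LB agar with or without 25 μg/mL kanamycin, together with 100 μg/mL carbenicillin, 50 μM IPTG and 0.2% rhamnose. Colonies were pooled and amplicon-sequenced on an Illumina HiSeq 2500. Fitness from DiMSum is the error-weighted combination of wild-type-normalised replicate fold changes, kanamycin over none.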

Row | Sequence | self-splicing fitness (ln) (30 °C) | self-splicing fitness (ln) (37 °C)
1 | UAGGAGCAAUAUUACGCGGU | -1.52 ± 0.23 | –
2 | UAGGAGCAAUAUUACGGCUU | -4.37 ± 0.28 | -3.13 ± 0.4
3 | UAGGAGCAAUAUUACGGGUC | -2.64 ± 0.19 | –
4 | UAGGAGCAAUAUUACGGUGA | – | -1.08 ± 0.27
5 | UAGGAGCAAUAUUACGGUGU | -3.4 ± 0.3 | -2.9 ± 0.43
6 | UAGGAGCAAUAUUACGUAAC | -4.94 ± 0.41 | -2.48 ± 0.22
7 | UAGGAGCAAUAUUACGUAAG | -3.22 ± 0.16 | -2.01 ± 0.16
8 | UAGGAGCAAUAUUACGUAUG | -3.04 ± 0.22 | -1.71 ± 0.16
9 | UAGGAGCAAUAUUACGUUCG | -0.918 ± 0.2 | -0.576 ± 0.19
10 | UAGGAGCAAUAUUACGUUUA | -2.18 ± 0.27 | -0.145 ± 0.17
11 | UAGUAGCAAUAUUACGAACA | – | -0.405 ± 0.42
12 | UAGUAGCAAUAUUACGACAA | -0.402 ± 0.15 | -0.175 ± 0.14
13 | UAGUAGCAAUAUUACGACAC | – | -1.67 ± 0.26
14 | UAGUAGCAAUAUUACGAGAA | – | -1.76 ± 0.43
15 | UAGUAGCAAUAUUACGAUCG | -0.771 ± 0.095 | 0.251 ± 0.12
16 | UAGUAGCAAUAUUACGCGCG | -0.283 ± 0.077 | -0.281 ± 0.1
17 | UAGUAGCAAUAUUACGCGCU | -1.46 ± 0.16 | -0.161 ± 0.16
18 | UAGUAGCAAUAUUACGCGUG | -1.03 ± 0.12 | -0.705 ± 0.15
19 | UAGUAGCAAUAUUACGCUGA | -2.25 ± 0.39 | -0.637 ± 0.11
20 | UAGUAGCAAUAUUACGCUUA | -1.15 ± 0.14 | -0.806 ± 0.13
21 | UAGUAGCAAUAUUACGGCAU | -2.2 ± 0.15 | -0.67 ± 0.16
22 | UAGUAGCAAUAUUACGGGCU | -1.39 ± 0.2 | -2.47 ± 0.27
23 | UAGUAGCAAUAUUACGGGGA | -2.44 ± 0.33 | -3.25 ± 0.47
24 | UAGUAGCAAUAUUACGGUAC | -3.85 ± 0.48 | –
25 | UAGUAGCAAUAUUACGGUCG | -0.566 ± 0.097 | -0.103 ± 0.12

Row | Sequence | self-splicing fitness (ln) (30 °C) | self-splicing fitness (ln) (37 °C)
26 | UAGUAGCAAUAUUACGUAAU | -2.43 ± 0.13 | -2.19 ± 0.13
27 | UAGUAGCAAUAUUACGUCAA | -2.07 ± 0.23 | -2.44 ± 0.18
28 | UAGUAGCAAUAUUACGUCCA | -0.915 ± 0.37 | –
29 | UAGUAGCAAUAUUACGUCGC | -4.1 ± 0.43 | -2.3 ± 0.28
30 | UAGUAGCAAUAUUACGUGAC | -2.58 ± 0.15 | -2.47 ± 0.18
31 | UAGUAGCAAUAUUACGUGGC | – | -2.59 ± 0.44
32 | UAUAAGCAAUAUUACGAAGU | -3.7 ± 0.35 | -2.71 ± 0.38
33 | UAUAAGCAAUAUUACGACCG | -0.137 ± 0.12 | -0.1 ± 0.16
34 | UAUAAGCAAUAUUACGAGAU | -4.28 ± 0.31 | -2.54 ± 0.28
35 | UAUAAGCAAUAUUACGCAUC | -3.74 ± 0.2 | -2.38 ± 0.17
36 | UAUAAGCAAUAUUACGCCUC | -2.74 ± 0.38 | -2.08 ± 0.36
37 | UAUAAGCAAUAUUACGCGUG | -1 ± 0.057 | -0.488 ± 0.075
38 | UAUAAGCAAUAUUACGCUAU | -3.91 ± 0.28 | -1.92 ± 0.18
39 | UAUAAGCAAUAUUACGCUCC | -1.29 ± 0.24 | -1.02 ± 0.28
40 | UAUAAGCAAUAUUACGCUUC | -3.58 ± 0.38 | –
41 | UAUAAGCAAUAUUACGGAGC | – | -2.14 ± 0.28
42 | UAUAAGCAAUAUUACGGGAA | -2.77 ± 0.2 | -1.5 ± 0.18
43 | UAUAAGCAAUAUUACGGGUC | -3.27 ± 0.34 | -1.78 ± 0.24
44 | UAUAAGCAAUAUUACGGUUU | -2.58 ± 0.11 | -1.24 ± 0.099
45 | UAUAAGCAAUAUUACGUCUA | 0.561 ± 0.077 | 0.494 ± 0.1
46 | UAUAAGCAAUAUUACGUGCA | -0.333 ± 0.085 | -0.0529 ± 0.1
47 | UAUAAGCAAUAUUACGUGGC | -3.47 ± 0.32 | -2.73 ± 0.44
48 | UAUAAGCAAUAUUACGUUAG | -2.08 ± 0.14 | -0.812 ± 0.14
49 | UAUCAGCAAUAUUACGACAA | -0.495 ± 0.086 | 0.237 ± 0.097
50 | UAUCAGCAAUAUUACGACUA | 0.123 ± 0.068 | 0.517 ± 0.095

Row | Sequence | self-splicing fitness (ln) (30 °C) | self-splicing fitness (ln) (37 °C)
51 | UAUCAGCAAUAUUACGACUU | -0.502 ± 0.067 | -0.0466 ± 0.074
52 | UAUCAGCAAUAUUACGAGAC | -2.38 ± 0.33 | -1.75 ± 0.44
53 | UAUCAGCAAUAUUACGAGUG | -0.353 ± 0.058 | -0.197 ± 0.072
54 | UAUCAGCAAUAUUACGCAAU | -1.96 ± 0.11 | -0.74 ± 0.1
55 | UAUCAGCAAUAUUACGCAUU | -1.42 ± 0.076 | -0.197 ± 0.09
56 | UAUCAGCAAUAUUACGCCUG | -0.368 ± 0.1 | -0.425 ± 0.1
57 | UAUCAGCAAUAUUACGCGGC | -2.77 ± 0.31 | -1.62 ± 0.24
58 | UAUCAGCAAUAUUACGCUAA | -0.647 ± 0.084 | 0.529 ± 0.099
59 | UAUCAGCAAUAUUACGGAUC | -0.475 ± 0.11 | -0.265 ± 0.13
60 | UAUCAGCAAUAUUACGGCCG | -0.163 ± 0.11 | 0.391 ± 0.16
61 | UAUCAGCAAUAUUACGGCUA | 0.13 ± 0.085 | 0.848 ± 0.12
62 | UAUCAGCAAUAUUACGGGAA | -1.65 ± 0.1 | -0.124 ± 0.11
63 | UAUCAGCAAUAUUACGGGGU | -3.6 ± 0.2 | -2.48 ± 0.17
64 | UAUCAGCAAUAUUACGGUAA | -0.552 ± 0.13 | -0.308 ± 0.11
65 | UAUCAGCAAUAUUACGGUCG | -0.0229 ± 0.059 | 0.259 ± 0.066
66 | UAUCAGCAAUAUUACGUACU | -1.57 ± 0.089 | -0.383 ± 0.1
67 | UAUCAGCAAUAUUACGUCAU | -1.88 ± 0.13 | -1.42 ± 0.15
68 | UAUCAGCAAUAUUACGUCUG | -0.947 ± 0.076 | -0.205 ± 0.1
69 | UAUCAGCAAUAUUACGUGCA | -0.589 ± 0.054 | 0.447 ± 0.078
70 | UAUCAGCAAUAUUACGUGUC | -4.01 ± 0.17 | -1.79 ± 0.12
71 | UAUCAGCAAUAUUACGUUUU | -2.74 ± 0.084 | -1.4 ± 0.085
72 | UAUGAGCAAUAUUACGACAG | – | -1.78 ± 0.36
73 | UAUGAGCAAUAUUACGACUG | -1.23 ± 0.12 | -0.328 ± 0.14
74 | UAUGAGCAAUAUUACGAUAA | -3.74 ± 0.33 | -2.74 ± 0.27
75 | UAUGAGCAAUAUUACGCAUU | -3.57 ± 0.25 | -2.15 ± 0.22

Row | Sequence | self-splicing fitness (ln) (30 °C) | self-splicing fitness (ln) (37 °C)
76 | UAUGAGCAAUAUUACGCCAA | – | -2.51 ± 0.37
77 | UAUGAGCAAUAUUACGCCGA | -2.04 ± 0.34 | -1.73 ± 0.26
78 | UAUGAGCAAUAUUACGCCGC | -1.9 ± 0.31 | -1.02 ± 0.42
79 | UAUGAGCAAUAUUACGCGCU | -3.68 ± 0.31 | -2.64 ± 0.28
80 | UAUGAGCAAUAUUACGGACG | -2.79 ± 0.25 | -1.19 ± 0.23
81 | UAUGAGCAAUAUUACGGCGC | -3.47 ± 0.48 | -1.46 ± 0.29
82 | UAUGAGCAAUAUUACGGCUG | -1.01 ± 0.15 | -0.14 ± 0.19
83 | UAUGAGCAAUAUUACGGGCG | -2.75 ± 0.16 | -2.12 ± 0.2
84 | UAUGAGCAAUAUUACGGGCU | – | -1.8 ± 0.47
85 | UAUGAGCAAUAUUACGGGGU | -2.98 ± 0.21 | -2.2 ± 0.22
86 | UAUGAGCAAUAUUACGUCCA | -2.26 ± 0.26 | -2.86 ± 0.4
87 | UAUGAGCAAUAUUACGUGGG | -3.55 ± 0.25 | -3.94 ± 0.39
88 | UAUGAGCAAUAUUACGUGUC | -3.77 ± 0.28 | -3.2 ± 0.4
89 | UAUGAGCAAUAUUACGUUCA | -1.29 ± 0.2 | -0.652 ± 0.22
90 | UAUGAGCAAUAUUACGUUUU | -4.02 ± 0.32 | -2.45 ± 0.23
91 | UAUUAGCAAUAUUACGAAUG | -0.433 ± 0.082 | -0.322 ± 0.11
92 | UAUUAGCAAUAUUACGCAGA | -1.96 ± 0.28 | -1.63 ± 0.23
93 | UAUUAGCAAUAUUACGCCAG | -1.17 ± 0.28 | –
94 | UAUUAGCAAUAUUACGCGGU | -3.62 ± 0.36 | -1.8 ± 0.37
95 | UAUUAGCAAUAUUACGCUAA | – | -1.1 ± 0.46
96 | UAUUAGCAAUAUUACGGACC | -1.51 ± 0.43 | –
97 | UAUUAGCAAUAUUACGGAGG | -2.95 ± 0.28 | -1.84 ± 0.34
98 | UAUUAGCAAUAUUACGGCAA | -1.06 ± 0.14 | -0.784 ± 0.15
99 | UAUUAGCAAUAUUACGGCAU | -1.99 ± 0.16 | -0.541 ± 0.12
100 | UAUUAGCAAUAUUACGGCCU | -0.879 ± 0.21 | -0.611 ± 0.27
